Experimental findings from publication PMC3931707, “Distinct Structural Features of the Peroxide Response Regulator from Group A Streptococcus Drive DNA Binding” are described below.

Data set [1] addresses peroxide response regulator (PerR) from Group A streptococcus, recombinant 6xHis-tagged, wild type (Streptococcus pyogenes (Group A streptococcus) serotype M1 strain A20). As to the kind of experiment: SEC; Superdex 75 size exclusion chromatography of purified PerR against molecular weight markers; apparent molecular weight about 42 kDa for the wild type. In general terms: Size exclusion chromatography separates by hydrodynamic size, large species first.

A further data set concerns the target T1, PerR WT (Streptococcus pyogenes (GAS) serotype …, UniProt Q9A1M6 1-155).
T1 sequence: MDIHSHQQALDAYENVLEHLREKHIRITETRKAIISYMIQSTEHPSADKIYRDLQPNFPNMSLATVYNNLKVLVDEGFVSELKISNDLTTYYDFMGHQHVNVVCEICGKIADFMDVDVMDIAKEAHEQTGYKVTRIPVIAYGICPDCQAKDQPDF
Briefly: EMSA; EMSA: 20 mM Tris pH 8.0, 50 mM KCl, 5% glycerol, 50 ug/ml BSA, 15 min at 25 C; 6% native PAGE in Tris-borate, ethidium bromide. The settings on record: protein: recombinant; tags: C-terminal 6xHis (pET-21b NdeI/XhoI); chain copies: 2. On the technique in general: In EMSA bound probe runs differently from free probe, usually more slowly.

Take “peroxide response regulator (PerR) from Group A streptococcus, recombinant 6xHis-tagged, wild type (natural protein)”: in data set [1], the stoichiometry N was found to be 2.

B1: dpr segment (-185 to -135) (dsDNA)
DNA 1: ACACTTAATTAGAATCATTATCGTTTTATATCTATATTCTACAATGATTAA
DNA 2: TTAATCATTGTAGAATATAGATATAAAACGATAATGATTCTAATTAAGTGT
For the molecule B1, the binding result with PerR WT was “binds”.

As usually defined, the stoichiometry N is the number of molecules, sites or subunits per partner or assembly.
